{"source": "the DeepSol protein solubility set"}
{"assay": "soluble on expression in E. coli; label from the status in PepcDB or PDB records"}
{"sequence": "MDDSDDEYSRSHGETLTFVDPEDDGVSIGNTQDSQFAYEQFSVPTQSSQATDLLPGGTDGTTNDLPFHDVEDDESDSEKSLTEEQQQQKLPEHACRYCGISDPLCVAKCTVCRKWFCNSNDGTSGGHIVHHMVRSQHKEAYTHKDSPCGDTQLECYRCGSKNVFNLGFIPGKKDQVVVIICRTPCASIAFQNDDNWSPEDWKSVIAEKQLLSWIVNVPSEEQVARARKITATQAVRMEELWRDHPEATVDDLNKPGLDREPDHVQLRYVDAHHYSKVFRPLVAIEAEYDRRVKESASQAVGTVRWEQGLRQSVLAFFHLPQFADGVMKLAKGDELRLKHSQTVDGSEWTKIGSVFKIPDNHGDEVGIEIRGAVDKSVMESRIMFTVDVVWNATTFERQYKALAALLNDSKAISPYLYQKLLGHPAEEMMLKFDLPRRLSVAGLPELNSSQMQAVKQVLTRPLSLIQGPPGTGKTVVSATIVYHLVQKTEGNVLVCSPSNIAVDHLAEKIHKTGLKVVRLCARSREHSETTVPYLTLQHQLKVMGGAELQKLIQLKDEAGELEFKDDLRYMQLKRVKEHELLAAADVICCTCSSAADARLSKIRTRTVLIDESTQATEPEILVSIMRGVRQLVLVGDHCQLGPVVICKKAAIAGLSQSLFERLVLLGIRPFRLQVQYRMHPVLSEFPSNVFYDGSLQNGVTENDRHMTGVDWHWPKPNKPAFFWHCSGSEELSASGTSFLNRTEAANVEKLVSKLIKAGVQPHQIGVITPYEGQRSFIVNYMHTQGTLNSKLYENVEIASVDAFQGREKDYIIVTCVRSNDILGIGFLSDPRRLNVAITRAKYGLVLVGNAKVLARHDLWHELINHYKSKEMLYEGPINALKPLNLALPKATIRTKNNIAGNANRFGIKRMQYTFNEYKSNDPSQPRLPPTYSNSQNLLSMSKLAQTFNKNVPIPAHMMDPNVYAAARNQKDRRRGDQRRPPPQAEAAMDLSQGMMSQQSQQYPPQGASSQSQYLLDGASSLSGWSQSQTTTTTTRHHHHRQNRNSQQQMSQDMDDIQQKMDDLLFSQDC", "soluble on expression in E. coli": "not soluble"}
{"sequence": "MGSSHHHHHHSSGLVPRGSHMLLREVTREERKNFYTNEWKVKDIPDFIVKTLELREFGFDHSGEGPSDRKNQYTDIRDLEDYIRATAPYAVYSSVALYEKPQEMEGWLGTELVFDIDAKDLPLRRCEHEPGTVCPICLNDAKEIVRDTVIILREELGFNDIHIIYSGRGYHIRVLDEWALKLDSKSRERILSFVSASEIEDVEEFRKLLLNKRGWFVLNHGYPRAFRLRFGYFILRIKLPHLINAGIRKSIAKSILKSKEEIYEEFVRKAILAAFPQGVGIESLAKLFALSTRFSKSYFDGRVTVDLKRILRLPSTLHSKVGLIAKYVGTNERDVMRFNPFKHAVPKFRKEEVKVEYKKFLESLGT", "soluble on expression in E. coli": "soluble"}
{"sequence": "MGSDKIHHHHHHMLGTLKKMRVQLDDAQQVQYQLVVGDELLTLNPLIGKQLTLTHTGNIFCCNCGKKSKKSYSQGHCFVCMQKLASCDMCIMKPETCHYDQGTCREPEWAQSHCFVPHYVYLANTSGVKVGITRHTQLPTRWIDQGATQGLPIFKVSTRQLSGLVEVELAKLVNDKTHWQAMLKGHADDIDLNVKAAELIPQIEAKLHEIGMQKGDYSIERLDETIQPIHYPIDTFPKKITSHNFDKNGVVSGILQGIKGQYLMFDTGVINIRKFSSYEISVEHD", "soluble on expression in E. coli": "not soluble"}
{"sequence": "MKNYHDIVLALAGVCQSAKLVHQLATESRADSETFLTALNSLFITQPQRIEDVFGGEVRHLKLGLETLIHQLNAQGDQNLTRYWLSLLALEGKLSKNSDAKQTLGNRISRLKEQEIHYARDSETMLSIMANIYSDIISPLGKKIHILGSPDYLRQELVQNKIRAVLLAGIRSAVLWKQMGGTKWQILFFRRKLLATAKQIYSSIY", "soluble on expression in E. coli": "not soluble"}
{"sequence": "MGHHHHHHSHMLRVLLSAQTSPARLSGLLLIPPVQPCCLGPSKWGDRPVGGGPSAGPAQGLQRLLEQAKSPGELLRWLGQNPSKVRAHHYSVALRRLGQLLGSRPRPPPVEQVTLQDLSQLIIRNCPSFDIHTIHVCLHLAVLLGGTEVGPALWATELPAPGTAVYALP", "soluble on expression in E. coli": "not soluble"}
{"sequence": "MSLSQANRVFITGRSALTASGATADETWNAIISGQCGIDEINFWELSEWSHRLGGEIKDFQPSKMLPDRKLIKVISRQDIMGINAAVQAVEHSKMIAYRDSLADADLFNEQTAIYVGSPGNKYFQQYDFIPLLAKTHGDMRSFANQLFDEVHPMWLLRILPNNVLAYTGITYGFKGPNHNVTNHAVGGTQAILEAYHAIRSGQAERAVVVAYDIGTEPQGLFYYEKLGVVSNRHLKPFDKEHDGTILAEGAAALVLESEASVKSRAATCYGEIVGGLSASEATGLFSIEADGQHLASLMGQTLSTSGINSEEIGLIVTHGNGNSKSDDSEALAIKSVFKQEEVPATAFKWSMGHTLCASGVLDAVLTTYALETKCVPGIANFQQIAPTCEGLSVSREHREIISNSYAMMINRGFASMNVCLVIKACEEGHHHHHH", "soluble on expression in E. coli": "not soluble"}
{"sequence": "MAPSTPLLTVRGSEGLYMVNGPPHFTESTVFPRESGKNCKVCIFSKDGTLFAWGNGEKVNIISVTNKGLLHSFDLLKAVCLEFSPKNTVLATWQPYTTSKDGTAGIPNLQLYDVKTGTCLKSFIQKKMQNWCPSWSEDETLCARNVNNEVHFFENNNFNTIANKLHLQKINDFVLSPGPQPYKVAVYVPGSKGAPSFVRLYQYPNFAGPHAALANKSFFKADKVTMLWNKKATAVLVIASTDVDKTGASYYGEQTLHYIATNGESAVVQLPKNGPIYDVVWNSSSTEFCAVYGFMPAKATIFNLKCDPVFDFGTGPRNAAYYSPHGHILVLAGFGNLRGQMEVWDVKNYKLISKPVASDSTYFAWCPDGEHILTATCAPRLRVNNGYKIWHYTGSILHKYDVPSNAELWQVSWQPFLDGIFPAKTITYQAVPSEVPNEEPKVATAYRPPALRNKPITNSKLHEEEPPQNMKPQSGNDKPLSKTALKNQRKHEAKKAAKQEARSDKSPDLAPTPAPQSTPRNTVSQSISGDPEIDKKIKNLKKKLKAIEQLKEQAATGKQLEKNQLEKIQKETALLQELEDLKLGI", "soluble on expression in E. coli": "soluble"}
{"sequence": "SNAKELIQNIIEESYTDSQFTLSVLSEKLDLSSGYLSIMFKKNFGIPFQDYLLQKRMEKAKLLLLTTELKNYEIAEQVGFEDVNYFITKFKKYYQITPKQYRE", "soluble on expression in E. coli": "soluble"}
{"sequence": "MVTEDVRATADDIADMEIRGAATIARAAADALESQATDSDADSPAAFRAELRAAARHLRDTRPTAVSLPNALRYVLGNTDGETVAALRASVTDAADAFRQQLDRAQDDLGAIGANRLRDGDTVMTHCHSTDALACVKAALDDGKHIEAVVKETRPRKQGHITADQLREWGVPVTLIVDNAGRRYLDAVDHVLVGADSIAADGSVINKIGTSMLAVVARERGVPVMVAAQTLKLHPDTLTGNTVEIEMRDETEVLAAADRHQLGAPDVENPAFDVTPPRYVDAIVTERGQFPPESIVTLMRELYGDGTTEPWAEDLEHHHHHH", "soluble on expression in E. coli": "not soluble"}
{"sequence": "SYVQEHRLWGLMDKPHSAPCLMSLSLSFLICNKGRNAIRVQQSTDERMDAMLLWQCPTQGTRKNHESNSSLHHVPNWIFHSTIIPPNKGSKRCLRKVDWLLPRAGGVGGKRGVTADGDRVSF", "soluble on expression in E. coli": "soluble"}
{"sequence": "MGSDKIHHHHHHMNKYNQLGSVRYNQLGRIKYNSRGAREVKPLFNRLAQARPVILDQNRRRLAILENADNIILEQEINGIDQVTFTLPWKDEKRKYLVNENLVQLVNSIYIIRRVSVKRSGLSPAEIEVYAEALWYDLQFAEPVEHARWESATPEVIMKDILDGTGWRVGKVTITRERTLELEAGFTNRLKALYELPSLFGGELHFNTDTMTVDFTEPVGRKSGAAIAYSKNLEEVEAIYDTEELVTKLYLYGKNNMSIADANDGVPYLTDFSFTDKVRVRVTKDERFTNPYHLKERGEEALKVLARPRSSYVLRAADLSALSGMSHEEFFLGDEVLVYDKELGINVRTRIVSWKYNVIQPWNTELQLESKQPSLSDLLTGIQEGAEFLYSEDAVERDEMLNLHVFNYLMNSRGDDGFNYWTNDGWELDAENGYSGNASFRATAQPGVKKSLRQTIYPAHRDSYSLSLRVATENLRVGNGRVGVYVKFKYQDGTEEEPIWIPLSEDE", "soluble on expression in E. coli": "not soluble"}
{"sequence": "MRVDIWSDVVCPFCYIGKKRLEHVAAEAGIELDVHWHSFELDPDAPTSHDTSNTERLAKKYGRTFEEMQEMQQNIASMAAQEGIDFQWQKANSGNSFNAHRIIHLAQSKGLGNEAEEAFFHAYMTEGLAIGEREVVEEIASRIGLDHAEVEFVLDSNELSDFVRHDEKIAHEQLNISGVPFFVFDQKLALSGAQPKEVFLQVLQKALTQRENDAVAEASSDAVCSDDSCDIPQKS", "soluble on expression in E. coli": "not soluble"}
